Assay results published in the supplement of paper PMC7125110.
± gives the standard error. Fewer inactive variants are shown than the library holds.

B1: glmS ribozyme (parent)
chain: AUAAAAGCGCCAGAACUACAGAAAUGUAGUUGACGAGGAGGAGGUUUAUCGAAUUUUCGGCGGAUGCCUCCAAA

Legend:
Conditions in all cases: with glucosamine-6-phosphate
[1] = variants of: B1; assay: self-cleavage kobs at 40 uM GlcN6P; higher = faster cleavage; RNA array
Procedure, shortened: (§1)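 Glucosamine-6-phosphate in HEPES/KCl/Mg(OAc)2 buffer, at 40 μM to 10 mM, was flowed over barcoded ribozyme variants transcribed in situ by E. coli RNA polymerase on sequenced MiSeq chips. Tracking was through a hybridised Cy3 probe at 37 °C. kobs, kcat and KM came from exponential decay fits and weighted Michaelis–Menten fits of normalised per-tile medians.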

[2] = variants of: B1; assay: self-cleavage kobs at 640 uM GlcN6P; higher = faster cleavage; RNA array
Procedure, shortened: as §1

[3] = variants of: B1; assay: self-cleavage kobs at 2500 uM GlcN6P; higher = faster cleavage; RNA array
Procedure, shortened: as §1

[4] = variants of: B1; assay: self-cleavage kobs at 10000 uM GlcN6P; higher = faster cleavage; RNA array
Procedure, shortened: as §1

[5] = variants of: B1; assay: self-cleavage kobs at 160 uM GlcN6P; higher = faster cleavage; RNA array
Procedure, shortened: as §1

Variant	self-cleavage kobs at 40 uM GlcN6P [1] [s⁻¹]	self-cleavage kobs at 640 uM GlcN6P [2] [s⁻¹]	self-cleavage kobs at 2500 uM GlcN6P [3] [s⁻¹]	self-cleavage kobs at 10000 uM GlcN6P [4] [s⁻¹]	self-cleavage kobs at 160 uM GlcN6P [5] [s⁻¹]
A15C U69C	0.000108 ± 2.5e-05	0.000226 ± 8.5e-05	0.000165 ± 4.4e-05	0.00087 ± 0.00022	
A14U G38U G63U	< 1e-05			< 1e-05	
A12G U57A	< 1e-05			4.27e-05 ± 9.1e-06	
A12C G40A C58U	< 1e-05				< 1e-05
A12G C34G G38C A39C A42U G60C C71U	< 1e-05				
A14C G38C G44A G63U C70G	< 1e-05				
A14G A33G G59U	< 1e-05				
G13A G37C	< 1e-05	< 1e-05	< 1e-05	< 1e-05	< 1e-05
A14C G60U	< 1e-05	< 1e-05		< 1e-05	< 1e-05
G13U A36G G62U G66U C70A	< 1e-05				
A12C G13A U65C C68U	< 1e-05				
A14C C50G C68A	4.86e-05 ± 1.6e-05			0.000123 ± 2.5e-05	
A14U U46G G63A U65A C70G C71G	4.47e-05 ± 2e-05				
G13C A33G A48C	< 1e-05		< 1e-05		
A12U C50G	4.38e-05 ± 1.4e-05		6.46e-05 ± 2.2e-05	0.000147 ± 4.2e-05	0.000613 ± 0.00026
G13A A48U	< 1e-05	< 1e-05			< 1e-05
A12C G35U U47C A48U	< 1e-05	< 1e-05		< 1e-05	
G13A C50A U69G	4.48e-05 ± 2.2e-05				
A14U C16U G29U C50A G62U	< 1e-05				
A15C A36G	< 1e-05	< 1e-05	< 1e-05	< 1e-05	< 1e-05
G13U U45G	< 1e-05		8.28e-05 ± 2e-05	0.000133 ± 1.8e-05	
A14G U54G G66A	0.000476 ± 0.00011			0.0163 ± 0.0061	
A12U A15U A42G	0.000666 ± 0.00019	0.00157 ± 0.00069	0.00849 ± 0.0038		
G13U G35U	< 1e-05	< 1e-05	< 1e-05	< 1e-05	< 1e-05
A14G G29U A36G	< 1e-05				
A14G U46G C67A	0.000265 ± 6.3e-05			0.00474 ± 0.0012	
A12C G32A G44C	< 1e-05		< 1e-05		

Variant	self-cleavage kobs at 40 uM GlcN6P [1] [s⁻¹]	self-cleavage kobs at 640 uM GlcN6P [2] [s⁻¹]	self-cleavage kobs at 2500 uM GlcN6P [3] [s⁻¹]	self-cleavage kobs at 10000 uM GlcN6P [4] [s⁻¹]	self-cleavage kobs at 160 uM GlcN6P [5] [s⁻¹]
A12U C50G G51C	< 1e-05				
A14G C34A G38U	< 1e-05				
G13C C16U C67A	< 1e-05			3.41e-05 ± 1.2e-05	
A12C U31A G32C C34A U47A C71U	< 1e-05			< 1e-05	
A14G G32A U49A	< 1e-05				
G13C U49G	< 1e-05	< 1e-05			< 1e-05
A14G G41A	0.000282 ± 3.2e-05	0.00125 ± 0.00022	0.00232 ± 0.00052	0.00645 ± 0.0016	0.000481 ± 7.9e-05
G13A A15C G38U A48G A52C	< 1e-05			< 1e-05	
A15C G63U	< 1e-05	< 1e-05		< 1e-05	
A14U C50G C58G	0.000124 ± 3.9e-05			0.000108 ± 2.7e-05	
G13U U56A G59U	< 1e-05				
A14G C16A U17C A18U C19A A20C	0.000161 ± 4.5e-05			0.00427 ± 0.00081	
A14C C34A	< 1e-05	< 1e-05		< 1e-05	< 1e-05
A12U U57C G59C	< 1e-05	< 1e-05	< 1e-05		
G13U A52U C70G	< 1e-05				
G13U C34A U49A U65C	< 1e-05			< 1e-05	
A14U G29U G44U U56A	< 1e-05				
G13A A36G G44U A53U	< 1e-05		< 1e-05	< 1e-05	
G13U G38A A39U	< 1e-05				
A14G A15U G29A	3.49e-05 ± 1.3e-05			0.00133 ± 0.00028	
A14U U45G G62C	< 1e-05			< 1e-05	
G13C A15U C16G A39C	< 1e-05			< 1e-05	
A12C G51U	< 1e-05	< 1e-05			
G13C U30C A36G G41C C70A	< 1e-05	< 1e-05	< 1e-05	< 1e-05	< 1e-05
A12U A52C C58U C71U	< 1e-05				
G13C C50G G63A C70G	0.000201 ± 7.2e-05			0.000144 ± 4.2e-05	
A14G A33C C70U	< 1e-05	< 1e-05	< 1e-05	< 1e-05	< 1e-05
